According to US20230365641A1:

Tests used:
hPD1-mFc (human) = test: kinetic binding table: huPDL1-hFc captured as ligand (capture level 53.4 RU), hPD1-mFc as sample; method not given
[1] = molecular target: PD-1 (antigen of the ELISA and of the in vitro affinity measurement) (UniProt Q15116); test: ELISA; design: Bmax: unit not given here
Chain of PD-1 (antigen of the ELISA and of the in vitro affinity measurement) (Q15116 25-167 limits assumed): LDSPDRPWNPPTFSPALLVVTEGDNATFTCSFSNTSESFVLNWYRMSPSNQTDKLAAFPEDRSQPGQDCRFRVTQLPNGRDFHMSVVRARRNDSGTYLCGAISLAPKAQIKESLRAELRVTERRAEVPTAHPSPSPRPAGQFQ

Chain of hPD1-mFc (human) (Q15116 25-170): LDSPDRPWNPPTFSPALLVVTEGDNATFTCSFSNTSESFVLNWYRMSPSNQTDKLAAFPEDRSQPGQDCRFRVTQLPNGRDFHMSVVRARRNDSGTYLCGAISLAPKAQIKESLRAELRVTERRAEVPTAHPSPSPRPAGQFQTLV

Kd (hPD1-mFc (human)) [nM] | koff (hPD1-mFc (human)) [s⁻¹] | kon (hPD1-mFc (human)) [M⁻¹ s⁻¹] | Bmax [1] | Kd [1] [nM] | Substance
74.1 | 0.025 | 338000 | – | – | huPDL1-hFc (from UniProt Q9NZQ7) (Fc fusion)
– | – | – | 1.37 | 0.32 | XR034 (Pembro IgG) (antibody)
